Measurements reported in patent US10584350B2, “Structurally modified COI1” (Board of Trustees of Michigan State University, priority 2016, dated 2020).
Substitutions are numbered along the chain they refer to. Names and notes keep the numbering of the source.

B1: Y386: COI1 alanine substitution mutant at Y386 (protein, UniProt O04197 1-592, looked up, variant Y386A)
Coronatine-insensitive …: MEDPDIKRCKLSCVATVDDVIEQVMTYITDPKDRDSASLVCRRWFKIDSETREHVTMALCYTATPDRLSRRFPNLRSLKLKGKPRAAMFNLIPENWGGYVTPWVTEISNNLRQLKSVHFRRMIVSDLDLDRLAKARADDLETLKLDKCSGFTTDGLLSIVTHCRKIKTLLMEESSFSEKDGKWLHELAQHNTSLEVLNFYMTEFAKISPKDLETIARNCRSLVSVKVGDFEILELVGFFKAAANLEEFCGGSLNEDIGMPEKYMNLVFPRKLCRLGLSYMGPNEMPILFPFAAQIRKLDLLYALLETEDHCTLIQKCPNLEVLETRNVIGDRGLEVLAQYCKQLKRLRIERGADEQGMEDEEGLVSQRGLIALAQGCQELEYMAVAVSDITNESLESIGTYLKNLCDFRLVLLDREERITDLPLDNGVRSLLIGCKKLRRFAFYLRQGGLTDLGLSYIGQYSPNVRWMLLGYVGESDEGLMEFSRGCPNLQKLEMRGCCFSERAIAAAVTKLPSLRYLWVQGYRASMTGQDLMQMARPYWNIELIPSRRVPEVNQQGEIREMEHPAHILAYYSLAGQRTDCPTTVRVLKEPI
B2: L470: COI1 alanine substitution mutant at L470 (protein, UniProt O04197 1-592, looked up, variant L470A)
Coronatine-insensitive …: B1 Coronatine-insensitive … with A386Y, L470A
B3: F89: COI1 alanine substitution mutant at F89 (protein, UniProt O04197 1-592, looked up, variant F89A)
Coronatine-insensitive …: B1 Coronatine-insensitive … with F89A, A386Y
B4: K492: COI1 alanine substitution mutant at K492 (protein, UniProt O04197 1-592, looked up, variant K492A)
Coronatine-insensitive …: B1 Coronatine-insensitive … with A386Y, K492A
B5: F443: COI1 alanine substitution mutant at F443 (protein, UniProt O04197 1-592, looked up, variant F443A)
Coronatine-insensitive …: B1 Coronatine-insensitive … with A386Y, F443A
B6: R121: COI1 alanine substitution mutant at R121 (protein, UniProt O04197 1-592, looked up, variant R121A)
Coronatine-insensitive …: B1 Coronatine-insensitive … with R121A, A386Y
B7: G357: COI1 alanine substitution mutant at G357 (protein, UniProt O04197 1-592, looked up, variant G357A)
Coronatine-insensitive …: B1 Coronatine-insensitive … with G357A, A386Y
B8: R440: COI1 alanine substitution mutant at R440 (protein, UniProt O04197 1-592, looked up, variant R440A)
Coronatine-insensitive …: B1 Coronatine-insensitive … with A386Y, R440A
B9: Y302A: COI1 alanine substitution mutant at Y302 (protein)
chain: B1 Coronatine-insensitive … with Y302A, A386Y
B10: V411: COI1 alanine substitution mutant at V411 (protein, UniProt O04197 1-592, looked up, variant V411A)
Coronatine-insensitive …: B1 Coronatine-insensitive … with A386Y, V411A
B11: L469: COI1 alanine substitution mutant at L469 (protein, UniProt O04197 1-592, looked up, variant L469A)
Coronatine-insensitive …: B1 Coronatine-insensitive … with A386Y, L469A
B12: D407: COI1 alanine substitution mutant at D407 (protein, UniProt O04197 1-592, looked up, variant D407A)
Coronatine-insensitive …: B1 Coronatine-insensitive … with A386Y, D407A
B13: Y472: COI1 alanine substitution mutant at Y472 (protein, UniProt O04197 1-592, looked up, variant Y472A)
Coronatine-insensitive …: B1 Coronatine-insensitive … with A386Y, Y472A
B14: L413: COI1 alanine substitution mutant at L413 (protein, UniProt O04197 1-592, looked up, variant L413A)
Coronatine-insensitive …: B1 Coronatine-insensitive … with A386Y, L413A
B15: R351: COI1 alanine substitution mutant at R351 (protein, UniProt O04197 1-592, looked up, variant R351A)
Coronatine-insensitive …: B1 Coronatine-insensitive … with R351A, A386Y
B16: R326A: COI1 alanine substitution mutant at R326 (protein)
chain: B1 Coronatine-insensitive … with R326A, A386Y
B17: R348: COI1 alanine substitution mutant at R348 (protein, UniProt O04197 1-592, looked up, variant R348A)
Coronatine-insensitive …: B1 Coronatine-insensitive … with R348A, A386Y
B18: Q491: COI1 alanine substitution mutant at Q491 (protein, UniProt O04197 1-592, looked up, variant Q491A)
Coronatine-insensitive …: B1 Coronatine-insensitive … with A386Y, Q491A
B19: D354: COI1 alanine substitution mutant at D354 (protein, UniProt O04197 1-592, looked up, variant D354A)
Coronatine-insensitive …: B1 Coronatine-insensitive … with D354A, A386Y
B20: R415: COI1 alanine substitution mutant at R415 (protein, UniProt O04197 1-592, looked up, variant R415A)
Coronatine-insensitive …: B1 Coronatine-insensitive … with A386Y, R415A
B21: M88: COI1 alanine substitution mutant at M88 (protein, UniProt O04197 1-592, looked up, variant M88A)
Coronatine-insensitive …: B1 Coronatine-insensitive … with M88A, A386Y
B22: R516: COI1 alanine substitution mutant at R516 (protein, UniProt O04197 1-592, looked up, variant R516A)
Coronatine-insensitive …: B1 Coronatine-insensitive … with A386Y, R516A
B23: L91: COI1 alanine substitution mutant at L91 (protein, UniProt O04197 1-592, looked up, variant L91A)
Coronatine-insensitive …: B1 Coronatine-insensitive … with L91A, A386Y
B24: L412: COI1 alanine substitution mutant at L412 (protein, UniProt O04197 1-592, looked up, variant L412A)
Coronatine-insensitive …: B1 Coronatine-insensitive … with A386Y, L412A
B25: E173: COI1 alanine substitution mutant at E173 (protein, UniProt O04197 1-592, looked up, variant E173A)
Coronatine-insensitive …: B1 Coronatine-insensitive … with E173A, A386Y
B26: Y444A: COI1 alanine substitution mutant at Y444 (protein)
chain: B1 Coronatine-insensitive … with A386Y, Y444A
B27: L410: COI1 alanine substitution mutant at L410 (protein, UniProt O04197 1-592, looked up, variant L410A)
Coronatine-insensitive …: B1 Coronatine-insensitive … with A386Y, L410A
B28: R85A: COI1 alanine substitution mutant at R85 (protein)
chain: B1 Coronatine-insensitive … with R85A, A386Y

Each molecule was assayed on COI1-JAZ9 interaction (assay: Y2H assays on plates for protein-protein interaction). Conditions: 10 μM COR, yeast.
Type: cell-based, Arabidopsis
Protocol: (§1) Yeast EGY48 strain carrying the p8Op:LacZ reporter plasmid was co-transformed with pGilda:COI1 (or COI1 mutants) and pB42AD:JAZ9 (or other JAZs) (Clontech). Colonies were selected on SD minimal plates (BD Biosciences) supplemented with the—uracil (U)/-tryptophan (W)/-histidine (H) amino acid drop out solution (Clontech). Yeast colonies were cultured overnight in liquid SD-UWH medium, harvested, washed twice in sterile water, and the absorbance (OD600) of the cultures was adjusted to 0.2 in liquid SD galactose/raffinose-UWH medium (BD Biosciences).
For Y2H assays on plates, 10-μL culture was spotted onto SD galactose/raffinose-UWH plates with 80 μg/mL X-gal and 10 μM COR (Sigma-Aldrich). Blue color indicated protein-protein interactions after 5-7 days of incubation at 30° C.
In the case of B1, the “COR-dependent COI1-JAZ9 interaction” value is reported as “reduced”.
With B2 the “COR-dependent COI1-JAZ9 interaction” value was “reduced”.
For B3, the “COR-dependent COI1-JAZ9 interaction” value was “reduced”.
With B4 the “COR-dependent COI1-JAZ9 interaction” value was “reduced”.
With B5 the “COR-dependent COI1-JAZ9 interaction” value was “reduced”.
With B6 the “COR-dependent COI1-JAZ9 interaction” value was “reduced”.
B7 was tested, and the “COR-dependent COI1-JAZ9 interaction” value was “reduced”.
For B8, the “COR-dependent COI1-JAZ9 interaction” value was “reduced”.
With B9 the “COR-dependent COI1-JAZ9 interaction” value was “disrupted”.
In the case of B10, the “COR-dependent COI1-JAZ9 interaction” value is reported as “reduced”.
B11 was tested, and the “COR-dependent COI1-JAZ9 interaction” value was “reduced”.
In the case of B12, the “COR-dependent COI1-JAZ9 interaction” value is reported as “reduced”.
For B13, the “COR-dependent COI1-JAZ9 interaction” value was “reduced”.
In the case of B14, the “COR-dependent COI1-JAZ9 interaction” value is reported as “reduced”.
With B15 the “COR-dependent COI1-JAZ9 interaction” value was “reduced”.
With B16 the “COR-dependent COI1-JAZ9 interaction” value was “disrupted”.
With B17 the “COR-dependent COI1-JAZ9 interaction” value was “reduced”.
With B18 the “COR-dependent COI1-JAZ9 interaction” value was “reduced”.
With B19 the “COR-dependent COI1-JAZ9 interaction” value was “reduced”.
In the case of B20, the “COR-dependent COI1-JAZ9 interaction” value is reported as “reduced”.
For B21, the “COR-dependent COI1-JAZ9 interaction” value was “reduced”.
In the case of B22, the “COR-dependent COI1-JAZ9 interaction” value is reported as “reduced”.
In the case of B23, the “COR-dependent COI1-JAZ9 interaction” value is reported as “reduced”.
With B24 the “COR-dependent COI1-JAZ9 interaction” value was “reduced”.
For B25, the “COR-dependent COI1-JAZ9 interaction” value was “reduced”.
With B26 the “COR-dependent COI1-JAZ9 interaction” value was “disrupted”.
B27 was tested, and the “COR-dependent COI1-JAZ9 interaction” value was “reduced”.

Same assay, conditions: 10 μM COR, yeast, listed as R326
B16 was tested, and the “COR-dependent COI1-JAZ9 interaction” value was “reduced”.

Same assay, conditions: 10 μM COR, yeast, listed as Y302
For B9, the “COR-dependent COI1-JAZ9 interaction” value was “reduced”.

Same assay, conditions: 10 μM COR, yeast, listed as Y444
For B26, the “COR-dependent COI1-JAZ9 interaction” value was “reduced”.

Each molecule was assayed on COI1-JAZ9 interaction (assay: Quantitative liquid Y2H assays (Beta-Glo, RLU)). Conditions: liquid Y2H, yeast.
Type: cell-based, Arabidopsis
Protocol: as §1
For liquid Y2H assays, cultures were supplemented with designated concentrations of JA-Ile (10 or 30 μM), COR (1 μM), or DMSO. After 16-h incubation with ligands, the liquid cultures were processed through the Beta-Glo Assay system (Promega) for detecting the β-galactosidase activity. […] Protein expression in yeast was detected using anti-LexA antibody (1:5,000; Upstate Biotechnology) for detection of COI1 expression from pGilda vector and anti-HA (1:5,000; Roche Life Science) antibody for detection of JAZ9 expression in pB42AD vector.
With B28 the “differential effect on JA-Ile-dependent vs COR-dependent COI1-JAZ9 interaction” value was “affect JAIle-dependent interaction more than COR-dependent interaction”.

Same assay, conditions: yeast; JA-Ile is a mixture of active and inactive isomers, COR pure
In the case of CC/C=C\C[C@H]1C(=O)CC[C@@H]1CC(=O)N[C@H](C(=O)O)[C@@H](C)CC [JA-Ile, jasmonoyl-L-isoleucine, reference compound], the “concentrations equivalent in promoting the COI1-JAZ9 interaction” value is reported as 10 µM.
